Measurements from US9670249B2, “Amphiphilic peptides and hydrogel matrices thereof for bone repair” (Ben-Gurion University of the Negev Research and Development …, priority 2006, dated 2017).
No end group written: not given here.

Key:
[1] = Hydrogel formation by dissolving peptides in NaOH solution; assay type: physicochemical; conditions: for Resultant pH / Self supporting gel formation assigned+: 4% weight peptide in 100 μl NaOH solution; for pH at which hydrogel is stabilized / formed: 0.023M peptide in NaOH solutions
Protocol: In general the matrix can be formed in the following way: dissolving the peptides at high pH above about 8) using either buffer (Tris) or NaOH. With the addition of the peptide the pH of the mixture drops and hydrogel may form. The peptide that is dissolved in alkaline solution can be titrated with HCl to a pH ˜7 to form yield a gel. The same can be done with HA or other mineral particles incorporated in the first step […]. Upon gelation the particles get trapped in the gel.
Four peptides were tested for their tendency to form hydrogels as function of pH and Ca^+2 ion concentrations. The peptides are 13 amino acids long having the sequence P-Y-(Z-Y)n-P, wherein n=5 and Y and Z are alternating hydrophilic (Y) and hydrophobic (Z) amino acids:
The experiment goal was to find appropriate conditions for hydrogel formation at physiological pH values (˜7.2) assuming that the type of amino acids in the dyads will determine the propensity of the system to form hydrogles thus the pH and the Ca^+2 ionic concentration of the system.
In an alkaline solution the acidic amino acid side chains tend to be negatively charged. Under these conditions charge-charge repulsive forces keep the peptides dissolved in solution. Upon lowering the pH the peptides which become uncharged undergo self-assembling through inter-strand hydrogen bonding, to form fibrous structure (FIG. 3) that stabilizes highly hydrated-gel, hydrogel. […] All the peptides lowered the pH of the solution to about 6-8 (Table 1).
In the next set of experiments the hypothesis that the more hydrophobic side chains would stabilize the beta-sheet fibril thus hydrogel formation, at higher pH values, was tested. Table 2 summarizes the effect of the hydrophobic side chain on the pH at which hydrogel is obtained. PLE-13 and PFE-13 were dissolved in different NaOH solutions to the same molar concentration (0.023M). […]

[2] = as above; assay type: physicochemical; conditions: 4% weight peptide in 100 μl NaOH solution, NaOH conc. 0.03

| Substance | Resultant pH ([1]; NaOH conc. 0.03) | Resultant pH ([1]; NaOH conc. 0.05) | Self supporting gel formation assigned+ ([1]; NaOH conc. 0.05) | Self supporting gel formation assigned+ [2] | pH at which hydrogel is stabilized / formed [1] |
| --- | --- | --- | --- | --- | --- |
| Pro-Asp-Phe-Asp (PDFD; printed: Pro-Asp-Phe-Asp) | ~3 | ~4 | liquid | liquid | – |
| PEFEFEFEFEFEP [PFE-13, PE(FE)5P] | – | – | – | – | > 7 |
| (Phe-Asp)6 (FDFDFDFDFDFD) | ~6 | ~7 | – | – | – |
| PDFDFDFDFDFDP [PFD-13, PD(FD)5P] | – | – | – | – | ~7 |
| PDLDLDLDLDLDP [PLD-13, PD(LD)5P] | – | – | – | – | forms hydrogel at lower pH compared to that of PFD-13 |
| Pro-Asp-(Phe-Asp)6 (PDFDFDFDFDFDFD) | ~6 | ~7 | +after several hrs. | – | – |
| Ac-Pro-Asp-(Phe-Asp)5-Pro-NH2 (Ac-PDFDFDFDFDFDP-NH2) | ~6 | >7.5 | Viscous liquid | – | – |
| PELELELELELEP [PLE-13, PE(LE)5P] | – | – | – | – | ~6.5 |
